Measurements reported in article PMC1964878.

Experiments:
[1] = system: O=C(O)[C@@H]1C[C@@H](O)CN1; test: purified protein; details: Tris 20 mM/EDTA 1 mM, pH 8-9 (optimum buffer), 37 C, 10-160 mM substrate
[2] = system: O=C(O)[C@H]1C[C@@H](O)CN1; test: purified protein; details: Tris 20 mM/EDTA 1 mM, pH 8-9 (optimum buffer), 37 C, 10-160 mM substrate

PaHyPRE (Pseudomonas aeruginosa PAO1) gave a Km [1] of 15.9 mM and a Km [2] of 18.5 mM.
